# Data reported in patent publication US20250382371A1 (NATIONAL INSTITUTES OF BIOMEDICAL INNOVATION HEALTH AND …, published 2025).
# Positions count from the first letter of the chain named. In names and notes the source's numbering stands.
# T1: human FCRL1 (NCBI accession number: NP_443170.1), transiently expressed on 293T cells (human, UniProt Q96LA6 17-429)
# T1 construct: also called Fc receptor-like protein 1; CD307a
# T1 sequence: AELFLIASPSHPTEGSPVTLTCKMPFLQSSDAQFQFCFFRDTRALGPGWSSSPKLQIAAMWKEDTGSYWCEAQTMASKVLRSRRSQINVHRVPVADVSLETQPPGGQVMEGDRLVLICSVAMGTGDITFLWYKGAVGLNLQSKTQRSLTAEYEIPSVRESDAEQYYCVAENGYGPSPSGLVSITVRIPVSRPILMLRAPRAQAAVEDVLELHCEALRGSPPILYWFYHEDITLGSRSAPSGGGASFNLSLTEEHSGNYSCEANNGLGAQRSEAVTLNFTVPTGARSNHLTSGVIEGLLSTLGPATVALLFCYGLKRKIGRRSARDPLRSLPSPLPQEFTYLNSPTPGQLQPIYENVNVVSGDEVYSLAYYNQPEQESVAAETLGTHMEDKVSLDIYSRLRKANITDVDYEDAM
# T2: cynomolgus monkey FCRL1 (XP_015310712), transiently expressed on 293T cells (cynomolgus monkey)
# T2 chain: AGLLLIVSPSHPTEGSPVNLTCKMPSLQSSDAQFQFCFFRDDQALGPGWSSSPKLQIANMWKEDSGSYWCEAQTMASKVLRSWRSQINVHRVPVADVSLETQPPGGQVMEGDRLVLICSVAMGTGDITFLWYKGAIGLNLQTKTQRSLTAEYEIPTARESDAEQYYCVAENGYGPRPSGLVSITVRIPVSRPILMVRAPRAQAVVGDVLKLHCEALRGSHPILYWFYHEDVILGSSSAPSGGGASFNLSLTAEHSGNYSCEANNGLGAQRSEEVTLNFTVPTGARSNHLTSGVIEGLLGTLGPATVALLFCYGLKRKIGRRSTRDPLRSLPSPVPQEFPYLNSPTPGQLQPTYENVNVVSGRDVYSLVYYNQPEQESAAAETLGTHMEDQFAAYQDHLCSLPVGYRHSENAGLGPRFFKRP
# T3: hFCRL1/FcRH1-His (manufactured by R&D Systems) (human, UniProt Q96LA6 17-307)
# T3 construct: Bought His-tagged recombinant human FCRL1; The protein in the assay is soluble and is probably only the extracellular part; not shown: His tag
# T3 sequence: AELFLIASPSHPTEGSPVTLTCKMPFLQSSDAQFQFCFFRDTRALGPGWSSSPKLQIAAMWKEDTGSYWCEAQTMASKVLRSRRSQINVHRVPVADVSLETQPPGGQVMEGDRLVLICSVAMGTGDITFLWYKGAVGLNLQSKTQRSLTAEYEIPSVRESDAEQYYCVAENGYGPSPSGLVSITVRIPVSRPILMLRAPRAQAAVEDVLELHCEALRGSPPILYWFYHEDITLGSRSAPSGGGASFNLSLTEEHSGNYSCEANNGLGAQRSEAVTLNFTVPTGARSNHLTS
# B1: anti-human FCRL1 mouse monoclonal antibody DK610 (antibody, V domains shown)
# VH: DVLLQESGPGLVKPSQSLSLTCSVAGYSITSDYAWNWLRRFPGNRLEWMGYITYSGSTAYHPSLKGRISFTRDTSQNQVFLQLHSVTTEDSATYYCAQGGTLITTWFLRWGQGTLVTVSA
# VL: DIVLTQSPASLAVSLGQRATISCRASKSVSTSDYNYMHWYRQKPGQPPKLFIYLASNLESGVPARFSGSGSGTDFTLNIHPVEEEDAATYYCQQSRELPSTFGGGTKLEIK
# B2: anti-human FCRL1 mouse monoclonal antibody DK1142 (antibody, V domains shown)
# VH: QVQLQQSGPELVKPGASVRISCKASGYTFTSYNIHWVKQRPGQGLEWIGWIYPGDGNPKYNEKFKGKTTLTADKSSSTAYMQLSSLTSEDSAVYFCARRIHYYDYFDYWGQGTTLTVSS
# VL: DVLMTQTPLSLPVSLGDQASISCRSSQSIVHSNGNTYLEWYLQKPGQSPKLLIYKVSNRFSGVPDRFSGSGSGTDFTLKISRVEADDLGVYYCFQGSHVPWTFGGGTKLEIK
# B3: anti-human FCRL1 mouse monoclonal antibody DK1166 (antibody, V domains shown)
# VH: B2 VH with P58T, Y103F, V117L
# VL: B2 VL with A19V, S26G, S28T, K79R, D86E
# B4: anti-human FCRL1 mouse monoclonal antibody DK1164 (antibody, V domains shown)
# VH: QVQLQQSGTELVRPGTSVKVSCKASGYAFTNYLIEWVKQRPGQGLEWIGVINPGSGGTDYNKKFKGKAMLTADKSSNTAYMQLSSLTSDDSAVYFCARSNSYAMDYWGQGTSVTVSS
# VL: DIVMSQSPSSLAVSVGEKVTVSCKSSQSLLYSGNQKNNLAWYKQKPGQSPKLLIYWASTRESGVPDRFTGSGSGTDFTLTMSSVKAEDLAVYYCQQYYSYPWTFGGGTKLEIK
# B5: DK681 chimeric antibody (chDK681), human IgG1 (S239C) (antibody)
# heavy: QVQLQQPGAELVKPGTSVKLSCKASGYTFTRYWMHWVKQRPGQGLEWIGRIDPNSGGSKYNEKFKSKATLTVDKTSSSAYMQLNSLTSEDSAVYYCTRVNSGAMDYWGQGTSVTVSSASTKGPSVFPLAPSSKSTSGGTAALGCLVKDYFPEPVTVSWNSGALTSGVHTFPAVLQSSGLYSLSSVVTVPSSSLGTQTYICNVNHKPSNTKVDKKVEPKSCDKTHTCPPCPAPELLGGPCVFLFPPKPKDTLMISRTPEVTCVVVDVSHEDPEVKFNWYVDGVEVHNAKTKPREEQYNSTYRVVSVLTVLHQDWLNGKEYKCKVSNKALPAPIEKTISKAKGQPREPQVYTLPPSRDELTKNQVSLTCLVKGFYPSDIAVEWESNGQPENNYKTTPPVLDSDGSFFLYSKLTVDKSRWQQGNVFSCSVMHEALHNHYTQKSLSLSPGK
# light: DIVMSQSPSSLAVSVGEKVTMSCKSSQSLLYSSNQKNYLAWYQQKPGQSPKLLIYWASTRESGVPDRFTGSGSGTDFTLTISSVKAEDLAIYYCQQYSNYPTFGSGTKLEIK
# notes: also called DK681 F01; not shown: human kappa light chain constant region (pFUSE2-CLIg-hk vector)
# B6: DK681 humanized antibody DK681 F12, human IgG1 (S239C) (antibody)
# heavy: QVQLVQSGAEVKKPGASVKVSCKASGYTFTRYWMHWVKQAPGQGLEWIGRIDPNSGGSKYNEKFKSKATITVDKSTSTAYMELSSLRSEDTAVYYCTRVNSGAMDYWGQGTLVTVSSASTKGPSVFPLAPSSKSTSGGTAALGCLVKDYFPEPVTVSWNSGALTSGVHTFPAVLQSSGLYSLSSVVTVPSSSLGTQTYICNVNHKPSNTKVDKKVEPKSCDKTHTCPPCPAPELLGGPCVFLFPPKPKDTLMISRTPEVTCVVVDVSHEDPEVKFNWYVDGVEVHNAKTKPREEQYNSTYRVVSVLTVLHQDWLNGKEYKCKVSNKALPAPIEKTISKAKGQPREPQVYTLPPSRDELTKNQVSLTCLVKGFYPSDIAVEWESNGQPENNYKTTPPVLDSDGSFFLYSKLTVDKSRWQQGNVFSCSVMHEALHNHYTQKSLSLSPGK
# light: DIVMTQSPDSLAVSLGERATMNCKSSQSLLYSSNQKNYLAWYQQKPGQSPKLLIYWASTRESGVPDRFSGSGSGTDFTLTISSLQAEDVAIYYCQQYSNYPTFGQGTKVEIK
# B7: DK681 humanized antibody DK681 F13, human IgG1 (S239C) (antibody)
# heavy: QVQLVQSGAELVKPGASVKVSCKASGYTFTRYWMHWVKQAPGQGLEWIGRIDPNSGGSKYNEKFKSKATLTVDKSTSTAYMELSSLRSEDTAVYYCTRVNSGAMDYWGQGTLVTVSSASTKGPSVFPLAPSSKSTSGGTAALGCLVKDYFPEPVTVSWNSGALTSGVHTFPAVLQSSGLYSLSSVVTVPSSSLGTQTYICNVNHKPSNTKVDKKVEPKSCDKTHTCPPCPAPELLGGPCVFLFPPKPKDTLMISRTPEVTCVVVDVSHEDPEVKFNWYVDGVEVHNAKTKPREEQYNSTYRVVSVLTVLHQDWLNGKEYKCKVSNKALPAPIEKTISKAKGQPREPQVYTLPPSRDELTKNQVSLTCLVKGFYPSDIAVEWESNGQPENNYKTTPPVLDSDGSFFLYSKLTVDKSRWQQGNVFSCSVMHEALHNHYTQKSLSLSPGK
# light: B6 light
# B8: anti-human FCRL1 mouse monoclonal antibody DK681 (antibody, V domains shown)
# VH: QVQLQQPGAELVKPGTSVKLSCKASGYTFTRYWMHWVKQRPGQGLEWIGRIDPNSGGSKYNEKFKSKATLTVDKTSSSAYMQLNSLTSEDSAVYYCTRVNSGAMDYWGQGTSVTVSS
# VL: B5 light
# B9: DK1142 chimeric antibody (chDK1142), human IgG1 (S239C) (antibody)
# heavy: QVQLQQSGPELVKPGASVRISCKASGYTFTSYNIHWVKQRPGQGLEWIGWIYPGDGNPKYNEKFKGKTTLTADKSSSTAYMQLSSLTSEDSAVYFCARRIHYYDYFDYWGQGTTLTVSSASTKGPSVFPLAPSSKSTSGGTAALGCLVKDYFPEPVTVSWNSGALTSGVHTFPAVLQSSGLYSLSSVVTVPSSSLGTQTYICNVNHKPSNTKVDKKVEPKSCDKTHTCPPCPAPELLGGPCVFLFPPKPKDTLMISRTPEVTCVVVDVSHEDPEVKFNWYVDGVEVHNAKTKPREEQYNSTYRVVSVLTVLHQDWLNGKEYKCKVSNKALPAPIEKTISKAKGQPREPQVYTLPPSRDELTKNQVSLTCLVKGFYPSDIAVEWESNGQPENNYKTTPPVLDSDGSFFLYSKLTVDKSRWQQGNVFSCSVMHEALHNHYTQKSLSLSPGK
# light: B2 VL
# notes: also called DK1142 F02; not shown: human kappa light chain constant region (pFUSE2-CLIg-hk vector)
# B10: DK1142 humanized antibody DK1142 F22, human IgG1 (S239C) (antibody)
# heavy: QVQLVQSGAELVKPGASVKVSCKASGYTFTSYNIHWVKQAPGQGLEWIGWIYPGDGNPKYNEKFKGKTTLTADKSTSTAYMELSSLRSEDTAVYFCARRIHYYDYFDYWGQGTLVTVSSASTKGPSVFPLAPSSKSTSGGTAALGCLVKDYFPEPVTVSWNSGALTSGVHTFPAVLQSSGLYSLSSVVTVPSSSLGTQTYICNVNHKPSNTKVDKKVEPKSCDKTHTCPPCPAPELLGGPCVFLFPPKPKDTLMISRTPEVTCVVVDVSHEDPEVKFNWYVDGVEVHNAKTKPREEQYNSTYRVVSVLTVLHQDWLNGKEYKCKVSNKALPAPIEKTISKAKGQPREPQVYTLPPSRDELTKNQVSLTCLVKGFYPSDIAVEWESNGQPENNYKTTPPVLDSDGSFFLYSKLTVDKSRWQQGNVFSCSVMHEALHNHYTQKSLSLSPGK
# light: DIVMTQSPLSLPVTLGEPASISCRSSQSIVHSNGNTYLEWYLQKPGQSPQLLIYKVSNRFSGVPDRFSGSGSGTDFTLKISRVEAEDVGVYYCFQGSHVPWTFGQGTKVEIK
# B11: DK1142 humanized antibody DK1142 F21, human IgG1 (S239C) (antibody)
# heavy: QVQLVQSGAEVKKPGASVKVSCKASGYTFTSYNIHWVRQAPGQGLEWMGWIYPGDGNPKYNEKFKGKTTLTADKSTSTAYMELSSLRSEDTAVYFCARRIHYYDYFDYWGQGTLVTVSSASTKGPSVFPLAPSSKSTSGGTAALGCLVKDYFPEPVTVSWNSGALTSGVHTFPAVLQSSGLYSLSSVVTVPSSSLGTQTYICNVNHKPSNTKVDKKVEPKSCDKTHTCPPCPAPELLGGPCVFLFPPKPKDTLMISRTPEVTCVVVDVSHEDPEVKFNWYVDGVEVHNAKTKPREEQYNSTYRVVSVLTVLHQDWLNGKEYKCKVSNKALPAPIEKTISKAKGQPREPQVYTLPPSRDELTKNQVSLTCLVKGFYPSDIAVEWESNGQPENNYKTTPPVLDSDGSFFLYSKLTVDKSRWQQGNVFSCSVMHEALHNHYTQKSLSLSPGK
# light: B10 light
# B12: DK1142 humanized antibody DK1142 F24, human IgG1 (S239C) (antibody)
# heavy: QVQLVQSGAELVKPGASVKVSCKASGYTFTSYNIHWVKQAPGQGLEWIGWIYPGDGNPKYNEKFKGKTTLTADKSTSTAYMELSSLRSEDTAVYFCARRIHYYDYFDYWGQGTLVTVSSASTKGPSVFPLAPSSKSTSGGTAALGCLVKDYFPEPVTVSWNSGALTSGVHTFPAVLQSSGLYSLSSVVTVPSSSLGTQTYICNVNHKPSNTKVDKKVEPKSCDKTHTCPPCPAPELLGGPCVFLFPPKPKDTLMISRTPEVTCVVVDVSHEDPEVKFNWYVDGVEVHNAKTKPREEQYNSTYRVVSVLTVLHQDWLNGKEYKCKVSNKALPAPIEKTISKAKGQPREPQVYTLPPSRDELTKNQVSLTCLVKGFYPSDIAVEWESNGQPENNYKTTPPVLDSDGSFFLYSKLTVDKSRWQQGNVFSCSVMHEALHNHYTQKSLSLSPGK
# light: B10 light with I2V, Q50K, V56I
# B13: anti-human FCRL1 mouse monoclonal antibody DK1141 (antibody, V domains shown)
# VH: EVRLVESGGRLVQPKGSLRLSCAVSGFTFNTYAMYWIRQAPGKGLEWVARIRSKTNNFATYYADSVKDRFTISRDDSQSMLYLQMNNLKTEDTAMYYCVRDNSGSFDYWGQGTTLTVSS
# VL: DIVMAQSPSSLAVSVGEKVTMSCKSSQSLLHSSNQKNYLAWYQQKPGQSPNLLIYWASSRESGVPDRFTGSGSGTDFTLTISSVQAEDLATYYCQQYYSYPTFGAGTKLDLK
# Key:
# [1] = biological target: T1, human FCRL1 (NCBI accession number: …); test: flow cytometry on 293T cells transiently expressing human FCRL1; apparent KD from EC50 of a 4-parameter fit
# Protocol: (§1) An antigen-specific reactivity of the novel anti-human FCRL1 mouse antibody obtained in Example 4 was evaluated by Flow Cytometry (FCM). FCRL1 antigen-expressing cells were prepared by transiently expressing the recombinant FCRL1 antigen on 293T cells. A codon-optimized cDNA was synthesized based on the amino acid sequence of human FCRL1 (NCBI accession number: NP_443170.1) or cynomolgus monkey FCRL1 (XP_015310712), and a fragment in which the sequence of an internal ribosome entry site (IRES) derived from the encephalomyocarditis virus (EMCV) and the sequence of TagBFP were arranged in tandem was cloned into pcDNA 3.1hygro to construct an expression plasmid vector for human FCRL1 or cynomolgus monkey FCRL1. The purified expression vector was transfected into 293T cells, cells were collected 2 days after transfection, and binding with each antibody was confirmed by FCM.
# (§2) As the secondary antibody, when the sample is a mouse antibody, R-Phycoerythrin (PE) F(ab′)₂ Fragment Goat Anti-Mouse IgG (H+L) (Jackson ImmunoResearch) was used, and when the sample is a human antibody or a human chimeric antibody, R-Phycoerythrin (PE) F(ab′)₂ Fragment Goat Anti-Human IgG, Fcγ Fragment Specific (Jackson ImmunoResearch) was used. A solution of each secondary antibody was prepared by diluting the stock solution 200 times with an FCM buffer. After washing once, cells in each well were suspended with 100 μL of FCM buffer, and binding to each antibody was confirmed by flow cytometry (FCM).
# (§3) Cells that transiently expressed human FCRL1 or cynomolgus monkey FCRL1 were reacted with a 3-fold dilution series of each antibody starting from 100 nM (15 μg/ml) at 12 points. Data obtained by the FCM was analyzed, and a binding amount of each antibody bound to the cell was calculated as a fluorescence amount MFI derived from the PE-labeled secondary antibody. An antibody concentration and the measured MFI were plotted with respect to a logarithm of the antibody concentration, a saturated binding curve of each antibody was obtained, and regression was performed by a 4-parameter logistic model.
# [2] = biological target: T2, cynomolgus monkey FCRL1 (XP_015310712), …; test: flow cytometry on 293T cells transiently expressing cynomolgus monkey FCRL1
# Protocol: as §1, with “The purified expression vector was transfected into 293T cells, cells were collected 2 days after transfection, and binding with each antibody was confirmed by FCM.” left out
# as §3
# [3] = biological target: T2, cynomolgus monkey FCRL1 (XP_015310712), …; test: flow cytometry on 293T cells transiently expressing cynomolgus monkey FCRL1; apparent KD from EC50 of a 4-parameter fit
# Protocol: as §1, §2, §3
# [4] = biological target: T3, hFCRL1/FcRH1-His (manufactured by R&D …); test: SPR (Biacore 8K+), antibody captured by anti-human IgG, hFCRL1/FcRH1-His as analyte; Steady state affinity model; KD from Steady state affinity model, not from kd/ka
# Protocol: (§4) For the purpose of comparing the binding activity of the DK681 chimeric antibody (chDK681) and the DK1142 chimeric antibody (chDK1142) obtained by connecting […] of the DK681 and DK1142 mouse antibodies obtained in Example 4 to a human IgG1 (S239C) constant region with the binding activity of the anti-FCRL1 humanized antibody obtained in Example 10 to human FCRL1, the binding activity to hFCRL1/FcRH1-His (manufactured by R&D Systems) was measured by a surface plasmon resonance method (SPR method) using Biacore8K+ (manufactured by Cytiva).
# (§5) The binding activity of the anti-FCRL1 antibody was measured as follows. An anti-human IgG antibody was immobilized on a CM5 sensor chip (manufactured by Cytiva) in accordance with the attached protocol using a Human Antibody Capture Kit (manufactured by Cytiva). […]
# (§6) Next, hFCRL1/FcRH1-His, which is prepared stepwise to 5 concentrations by 3-fold dilution from 10000 ng/ml, was monitored at a flow rate of 30 μL/min for a binding reaction for 180 seconds and a dissociation reaction for 400 seconds. For the obtained sensorgram, a kinetic constant of each antibody was calculated by fitting by a Steady state affinity model or a 1:1 Binding model using Bia Evaluation Software (manufactured by Cytiva). The calculated binding rate constant (ka), dissociation rate constant (kd) and dissociation constant [KD] of each antibody are shown in Table 5. […]
# [5] = biological target: T3, hFCRL1/FcRH1-His (manufactured by R&D …); test: SPR (Biacore 8K+), antibody captured by anti-human IgG, hFCRL1/FcRH1-His as analyte; Steady state affinity model; kinetic rate constant of the same sensorgram
# Protocol: as §4, §5, §6
# [6] = biological target: T3, hFCRL1/FcRH1-His (manufactured by R&D …); test: SPR (Biacore 8K+), antibody captured by anti-human IgG, hFCRL1/FcRH1-His as analyte; Steady state affinity model
# Protocol: as §4
# (§7) The binding activity of the anti-FCRL1 antibody was measured as follows. An anti-human IgG antibody was immobilized on a CM5 sensor chip (manufactured by Cytiva) in accordance with the attached protocol using a Human Antibody Capture Kit (manufactured by Cytiva). An anti-FCRL1 antibody prepared at 5 μg/mL was added to a flow cell on which the Anti-human IgG antibody was immobilized at a flow rate of 10 μL/min for 30 seconds.
# (§8) Next, hFCRL1/FcRH1-His, which is prepared stepwise to 5 concentrations by 3-fold dilution from 10000 ng/ml, was monitored at a flow rate of 30 μL/min for a binding reaction for 180 seconds and a dissociation reaction for 400 seconds. For the obtained sensorgram, a kinetic constant of each antibody was calculated by fitting by a Steady state affinity model or a 1:1 Binding model using Bia Evaluation Software (manufactured by Cytiva). The calculated binding rate constant (ka), dissociation rate constant (kd) and dissociation constant [KD] of each antibody are shown in Table 5. The chDK681 is referred to as DK681 F01, and the chDK1142 is referred to as DK1142 F02.
# [7] = biological target: T3, hFCRL1/FcRH1-His (manufactured by R&D …); test: SPR (Biacore 8K+), antibody captured by anti-human IgG, hFCRL1/FcRH1-His as analyte; 1:1 Binding model
# Protocol: as §4, §7, §8
Binder,Kd [1],Kd [3],Kd [7],koff [7],kon [7],further results
B1,0.4 nM,,,,,binding result [2]: no binding
B2,1.4 nM,1.1 nM,,,,
B3,1.5 nM,1 nM,,,,
B4,2.3 nM,1.4 nM,,,,
B5,,,,,,Kd [4]: 6.65 nM; koff [5]: 0.00105 s⁻¹; kon [5]: 447000 M⁻¹ s⁻¹
B6,,,,,,Kd [6]: 9.15 nM; koff [6]: 0.00259 s⁻¹; kon [6]: 385000 M⁻¹ s⁻¹
B7,,,,,,Kd [6]: 9.84 nM; koff [6]: 0.00297 s⁻¹; kon [6]: 387000 M⁻¹ s⁻¹
B8,1 nM,0.8 nM,,,,
B9,,,11.4 nM,0.0518 s⁻¹,4.55e+06 M⁻¹ s⁻¹,
B10,,,11.1 nM,0.0428 s⁻¹,3.85e+06 M⁻¹ s⁻¹,
B11,,,12.8 nM,0.0686 s⁻¹,5.36e+06 M⁻¹ s⁻¹,
B12,,,12.2 nM,0.0274 s⁻¹,2.24e+06 M⁻¹ s⁻¹,
B13,1.6 nM,0.8 nM,,,,
